According to patent US20220356245A1 (FORTY SEVEN, published 2022):
Where a chain is given by its changes, count along the chain named. Names and notes keep the numbering of the source. Like-named read-outs stand apart in the source and are kept apart here.

T1: mouse CD47 (mCD47) expressed on CHO cells (mouse, UniProt Q61735 19-303)
T1 construct: whole, on cells; also called CHO-mCD47
T1 sequence (looked up): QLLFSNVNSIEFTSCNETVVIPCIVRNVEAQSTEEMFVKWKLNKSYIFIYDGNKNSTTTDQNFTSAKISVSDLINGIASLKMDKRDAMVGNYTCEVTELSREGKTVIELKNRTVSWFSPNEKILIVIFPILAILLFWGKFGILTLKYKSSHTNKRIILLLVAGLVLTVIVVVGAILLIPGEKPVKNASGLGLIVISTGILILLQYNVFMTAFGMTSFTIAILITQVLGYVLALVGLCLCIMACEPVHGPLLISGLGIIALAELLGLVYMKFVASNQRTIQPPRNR

B1: h20-VH2-VL3 (candidate 20.8) (antibody, human IgG4 S228P, kappa, V domains shown)
VH: QVQLVQSGAEVKKPGASVKVSCKASGYSFTDYYINWVRQAPGQGLEWMGRIYPGIGNTYYNKKFKGRVTITRDTSASTAYMELSSLRSEDTAVYYCARGHYGRGMDYWGQGTLVTVSS
VL: EIVLTQSPDSLAVSLGERATINCKSSQSLLNSIDQKNYLAWYQQKAGQSPKLLIYFASTKESGVPDRFSGSGSGTDFTLTIDSLQAEDVAVYYCQQHYSTPWTFGGGTKVEIKR
notes: hIgG4-S228P/kappa; also called h20-H2-L3
B2: h20-VH1-VL5 (candidate 20.5) (antibody, human IgG4 S228P, kappa, V domains shown)
VH: QVQLLESGAVLARPGTSVKISCKASGYSFTDYYINWVKQRPGQGLEWIGRIYPGIGNTYYNKKFKGRAKLTAATSASIAYLEFSSLTNEDSAVYYCARGHYGRGMDYWGQGTLVTVSS
VL: B1 VL with E1D, L4M, A46P, S49P, D82S, S83G, Y93F, K113R
notes: hIgG4-S228P/kappa; also called h20-H1-L5
B3: h20-VH4-VL3 (candidate 20.18) (antibody, human IgG4 S228P, kappa, V domains shown)
VH: B1 VH with A16S, R72A, T74K, A76T, L113T
VL: B1 VL
notes: hIgG4-S228P/kappa; also called h20-H4-L3
B4: h20-VH3-VL4 (candidate 20.14) (antibody, human IgG4 S228P, kappa, V domains shown)
VH: B1 VH with I70V, A76I, Y80H, E89D, L113A
VL: B1 VL with E1D, L4M, A46P, S49P, D82S, Y93F, T108A
notes: hIgG4-S228P/kappa; also called h20-H3-L4
B5: h20-VH3-VL5 (candidate 20.15) (antibody, human IgG4 S228P, kappa, V domains shown)
VH: B1 VH with I70V, A76I, Y80H, E89D, L113A
VL: B1 VL with E1D, L4M, A46P, S49P, D82S, S83G, Y93F, K113R
notes: hIgG4-S228P/kappa; also called h20-H3-L5
B6: h20-VH1-VL3 (candidate 20.3) (antibody, human IgG4 S228P, kappa, V domains shown)
VH: B2 VH
VL: B1 VL
notes: hIgG4-S228P/kappa; also called h20-H1-L3
B7: h20-VH5-VL3 (candidate 20.23) (antibody, human IgG4 S228P, kappa, V domains shown)
VH: B1 VH with I70M, D73Y, A76I, S85R, E89D, Y95F, L113T
VL: B1 VL
notes: hIgG4-S228P/kappa; also called h20-H5-L3
B8: h20-VH5-VL5 (candidate 20.25) (antibody, human IgG4 S228P, kappa, V domains shown)
VH: B1 VH with I70M, D73Y, A76I, S85R, E89D, Y95F, L113T
VL: B1 VL with E1D, L4M, A46P, S49P, D82S, S83G, Y93F, K113R
notes: hIgG4-S228P/kappa; also called h20-H5-L5
B9: h20-VH1-VL4 (candidate 20.4) (antibody, human IgG4 S228P, kappa, V domains shown)
VH: B2 VH
VL: B1 VL with E1D, L4M, A46P, S49P, D82S, Y93F, T108A
notes: hIgG4-S228P/kappa; also called h20-H1-L4
B10: h20-VH5-VL4 (candidate 20.24) (antibody, human IgG4 S228P, kappa, V domains shown)
VH: B1 VH with I70M, D73Y, A76I, S85R, E89D, Y95F, L113T
VL: B1 VL with E1D, L4M, A46P, S49P, D82S, Y93F, T108A
notes: hIgG4-S228P/kappa; also called h20-H5-L4
B11: h20-VH2-VL4 (candidate 20.9) (antibody, human IgG4 S228P, kappa, V domains shown)
VH: B1 VH
VL: B1 VL with E1D, L4M, A46P, S49P, D82S, Y93F, T108A
notes: hIgG4-S228P/kappa; also called h20-H2-L4
B12: Candidate 33, chimeric hIgG format (hIgG1 or hIgG4) (antibody, V domains shown)
VH: LVQLQQSGPELVKPGTSVKISCRSSGYTFTDYYINWVQQRPGQGLEWVGWIFPGSGLTYYNKKFKGKATLSVDKSSNTAYMLLSSLTSEDSAVYFCARPYYGSRWDYTMDYWGQGTSVTVSS
VL: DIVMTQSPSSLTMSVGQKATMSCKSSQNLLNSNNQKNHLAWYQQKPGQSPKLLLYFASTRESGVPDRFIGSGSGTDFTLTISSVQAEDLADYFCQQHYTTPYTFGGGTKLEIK
notes: also called Candidate 33 (hIgG format)
B13: 2A1 (mouse antibody from Inhibrx) (antibody, V domains shown)
VH: EVQLQQSGAELVRSGASVKLSCTASGFNIKDYYLHWVKQRPEQGLEWIGWIDPDNGDTEFAPKFQGKATMTADTSSNTAYLQLSSLTSEDTAVYYCNAAYGSSSYPMDYWGQGTSVTV
VL: DIKMTQSPSSLYASLGERVTITCKASQDIHRYLSWFQQKPGKSPKILIYRANRLVDGVPSRFSGSGSGQDYSLTISSLEYEDMGIYYCLQYDEFPYTFGGGTKLEMK
B14: Candidate 20, chimeric hIgG format (hIgG1 or hIgG4) (antibody, V domains shown)
VH: QVQLKQSGAELVRPGASVKLSCKASGYSFTDYYINWVKQRPGQGLEWIARIYPGIGNTYYNKKFKGKATLTAEKSSSTAYMQLNSLTSEDSAVYFCARGHYGRGMDYWGQGTSVTVSS
VL: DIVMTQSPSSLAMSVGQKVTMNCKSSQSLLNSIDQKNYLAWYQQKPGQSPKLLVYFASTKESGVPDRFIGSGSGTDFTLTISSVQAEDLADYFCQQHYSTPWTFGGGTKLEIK
notes: also called Candidate 20 (hIgG format)
B15: Candidate 14 (VT008-AL6-14G1-16K1), mouse IgG (antibody, V domains shown)
VH: QVQLQQPGAELVKPGASLRVSCKASGYTFTNYWMYWVRQRPGRGLEWIGWIDPNSGGTKYNEKFKSKATLTVDKPSSTAYMQLSSLTSEDSAVYNCARGGYTMDYWGQGTSVTVSS
VL: DVVMTQTPLSLPVSLGDQASISCRASQSLVHSNGNTYLHWYLQKPGQSPKLLIYKVSNRFSGVPDRFSGSGSGTDFTLKISRVEAEDLGVYFCSQSTHVPLTFGAGTKLELK
notes: Recombinant mouse IgG2a or mIgG1 format, by assay
B16: Candidate 22, chimeric hIgG format (hIgG1 or hIgG4) (antibody, V domains shown)
VH: QVQLQQPGAELVKPGASVKLSCKASGYTFTTYWMHWVKQRPGQGLEWIGMIHPNSGTTNYNEKFKSKATLTVDKSSSSTYMQLSSLTSEDSAVYYCTRSHYYDGHFSYWGQGTLVTVSA
VL: DIVMSQSPSSLAVSAGEKVTMSCKSSQSLLNSRTRKNYLAWYQQKPGQSPKLLIYWASTRESGVPDRFTGSGSGTDFTLTISSVQAEDLAVYYCKQSYNLWTFGGGTRLEIK
notes: also called Candidate 22 (hIgG format)
B17: B6H12 (mouse IgG1, Abcam) (antibody, V domains shown)
VH: EVQLVESGGDLVKPGGSLKLSCAASGFTFSGYGMSWVRQTPDKRLEWVATITSGGTYTYYPDSVKGRFTISRDNAKNTLYLQIDSLKSEDTAIYFCARSLAGNAMDYWGQGTSVTVSS
VL: DIVMTQSPATLSVTPGDRVSLSCRASQTISDYLHWYQQKSHESPRLLIKFASQSISGIPSRFSGSGSGSDFTLSINSVEPEDVGVYYCQNGHGFPRTFGGGTKLEIK
B18: 5A3M3 (mouse antibody from Novimmune) (antibody, V domains shown)
VH: not shown
VL: DIQMTQSPSSLSASVGDRVTITCQASQSISSYLNWYQQKPGKAPKLLIYAASSLETGVPSRFSGSGSGTDFTFTISSLQPEDIATYYCQQKHPRGPRTFGQGTKVEIKR

Experiments:
[1] = biological target: T2, hu-sCD47-6His; extracellular domain of human CD47 antigen with 6His-tag (human); assay: SPR Biacore;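 note: antibodies captured on anti-IgG CM5 chip, soluble His-tagged human CD47 flowed over at rising concentrations, five 10 min injections, flow cell 1 as reference, 1:1 model fit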
T2 construct: also called hCD47-his; soluble hCD47
From the text: (§1) An anti-human or anti-mouse IgG (Fc) was first immobilized on the surface of Serie S Sensor Chips CM5 using the human or mouse antibody capture and amine coupling kits, following the manufacturer's instructions (GE Healthcare). […] The mouse, chimerized or humanized antibodies to be tested were then captured onto the appropriate anti-mouse or anti-human IgG surface in all flow cells except flow cell 1 used as control, at concentration and contact time adjusted so that ˜300 RU were captured on the surface. Binding kinetics were studied by passing increasing concentrations of hCD47-his in a series of five 10 minute injections through all flow cells at a rate of 30 μL/min. […] Following the final injection, buffer was passed across each flow cell for 60 minutes (mouse) or 30 minutes (human) to monitor the dissociation of bound antigen. Regeneration of the binding surface was carried out at the end of the cycle by flowing 3 M MgCl₂ for 60 s at 20 μL/min followed by 10 mM glycine-HCl, pH 1.7 for 180 s at 10 μl/min (for human) or by flowing 10 mM glycine-HCl, ph 1.7 for 360 s at 10 μl/min (for mouse). A second cycle with the same antibodies but no antigen was run as a control. Kinetics binding constants were estimated by non-linear fitting of the sensogram data to the 1:1 binding model provided by the Biacore T200 evaluation software.

[2] = biological target: T3, human CD47 (hCD47) expressed on cells (human, UniProt Q08722 19-323); assay: flow cytometry, Raji cells
T3 construct: Transfected CHO cells or endogenous CD47 of human cells; also called CHO-hCD47; CD47 on Raji cells

[3] = biological target: T2, hu-sCD47-6His; extracellular domain of …; assay: SPR Biacore; head read as x 10^-4
From the text: as §1

[4] = biological target: T1, mouse CD47 (mCD47) expressed on CHO …; assay: flow cytometry, CHO-mCD47 cells (not shown)
[5] = biological target: T3, human CD47 (hCD47) expressed on cells; assay: flow cytometry, Raji cells, competition with hSIRPα
[6] = biological target: T3, human CD47 (hCD47) expressed on cells; assay: flow cytometry, Raji cells, competition with His-hSIRPα
Method: The percent inhibition was plotted against antibody concentration and the IC50 values were calculated by using a nonlinear regression analysis model of the GraphPad Prism software.

[7] = biological target: T3, human CD47 (hCD47) expressed on cells; assay: cell-based or functional assay
[8] = biological target: T3, human CD47 (hCD47) expressed on cells; assay: flow cytometry, Raji cells; remark: listed apart in the source
Method: Raji cells (ATCC-CLL-86; 2×10⁵ cells/well of 96-well plate) were first incubated at +4° C. for 30 minutes with serial dilutions of anti-CD47 antibodies or control isotype antibody (in mIgG2a or mIgG1 format). The cells were then washed and incubated for 30 minutes at +4° C. with a PE-conjugated F(ab)′2 goat anti-mouse IgG antibody ( 1/100 dilution, Beckman Coulter). After washings, the fluorescence of the cells was analyzed by flow cytometry on an Accuri-C6 flow cytometer (BD Biosciences).
The delta of MFI, representing the difference between the intensity measured with the tested antibody and the intensity in the absence of antibody, was calculated for each antibody concentration and the values were plotted against the antibody concentrations. The EC50 values were then calculated by using a nonlinear regression analysis model of the GraphPad Prism software.

[9] = biological target: T2, hu-sCD47-6His; extracellular domain of …; assay: SPR Biacore T200, antibody captured, hCD47-his analyte;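 note: antibodies captured on anti-IgG (Fc) CM5 chip, five sequential 10 min antigen injections at rising concentrations, reference flow cell and antigen-free cycle as controls, 1:1 model fit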
[10] = biological target: T3, human CD47 (hCD47) expressed on cells; assay: flow cytometry, hCD47-CHO cells, competition with His-hSIRPα
Method: Human CD47-transfected cells (3×10⁵ cells/well of 96-well plate) were first incubated at +4° C. for 30 minutes with serial dilutions of anti-CD47 antibodies or isotype control antibody (in mIgG2a or mIgG1 format). […] The percentage inhibition was plotted against antibody concentration and the IC50 values were calculated using a nonlinear regression analysis model of the GraphPad Prism software.

Kd [1] [nM]	kon [1] [M⁻¹ s⁻¹]	EC50 [2] [µg/mL]	koff [3] [s⁻¹]	binding result [4]	IC50 [5] [µg/mL]	IC50 [6] [µg/mL]	Phagocytic index, Raji cells and human macrophages, antibody at 0.125 µg/mL [7]	EC50 [8] [µg/mL]	Kd [9] [nM]	koff [9] [s⁻¹]	kon [9] [M⁻¹ s⁻¹]	IC50 [10] [µg/mL]	Binder
3.65	189000	0.184	0.000628	no binding	0.079								B1
3.53	198000	0.206	0.000595	no binding	0.111								B2
4.37	180000	0.164	0.000733	no binding	0.142								B3
3.02	216000	0.143	0.000581	no binding	0.135								B4
2.36	242000	0.143	0.000528	no binding	0.113								B5
7.33	131000	0.184	0.000839	no binding	0.228								B6
9.93	104000	0.19	0.000841	no binding	0.169								B7
9.69	126000	0.159	0.00109	no binding	0.112								B8
7.58	126000	0.248	0.000772	no binding	0.261								B9
11	103000	0.177	0.00102	no binding	0.133								B10
3.34	219000	0.173	0.000632	no binding	0.123								B11
						0.11							B12
							113 Raji cells ingested per 100 macrophages	0.058	0.127	4.99e-05	401000	0.739	B13
						0.11							B14
							78.9 Raji cells ingested per 100 macrophages	0.055	3.85	0.00337	874000	0.737	B15
						0.233							B16
									5.14	6.59e-05	12900		B17
								0.301					B18
